B1: 14-3-3 protein sigma (Homo sapiens), P31947 (parent)
chain: MERASLIQKAKLAEQAERYEDMAAFMKGAVEKGEELSCEERNLLSVAYKNVVGGQRAAWRVLSSIEQKSNEEGSEEKGPEVREYREKVETELQGVCDTVLGLLDSHLIKEAGDAESRVFYLKMKGDYYRYLAEVATGDDKKRIIDSARSAYQEAMDISKKEMPPTNPIRLGLALNFSVFHYEIANSPEEAISLAKTTFDEAMADLHTLSEDSYKDSTLIMQLLRDNLTLWTADNAGEEGGEAPQEPQS

Variants of: B1
Conditions: with kpcg_human PRKCG
K49E;R56E;V178D was tested, and the “effect of a mutation on the interaction” value was “decreasing interaction strength”.

Variants of: B1
Conditions: with fak2_human PTK2B
With K49E;R56E;V178D the “effect of a mutation on the interaction” value was “decreasing interaction strength”.

Variants of: B1
Conditions: with cdk3_human CDK3, Q00526
cdk3_human CDK3, Q00526, sequence (Q00526 whole entry, looked up): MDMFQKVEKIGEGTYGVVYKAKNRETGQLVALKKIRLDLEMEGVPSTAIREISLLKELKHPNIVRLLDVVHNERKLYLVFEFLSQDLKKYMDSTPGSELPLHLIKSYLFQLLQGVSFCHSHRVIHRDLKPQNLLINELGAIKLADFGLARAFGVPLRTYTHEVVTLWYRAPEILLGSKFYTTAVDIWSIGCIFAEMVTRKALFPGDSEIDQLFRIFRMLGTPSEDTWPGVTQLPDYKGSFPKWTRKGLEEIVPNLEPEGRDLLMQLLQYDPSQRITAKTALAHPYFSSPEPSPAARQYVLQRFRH
With K49E;R56E;V178D the “effect of a mutation on the interaction” value was “decreasing interaction strength”.

Variants of: B1
Conditions: with limk1_human LIMK1, P53667
K49E;R56E;V178D was tested, and the “effect of a mutation on the interaction” value was “decreasing interaction strength”.

Variants of: B1
Conditions: with pak6_human PAK6, Q9NQU5
For K49E;R56E;V178D, the “effect of a mutation on the interaction” value was “decreasing interaction strength”.

Variants of: B1
Conditions: with igf1r_human IGF1R
For K49E;R56E;V178D, the “effect of a mutation on the interaction” value was “decreasing interaction strength”.

Variants of: B1
Conditions: with aapk2_human PRKAA2, P54646
For K49E;R56E;V178D, the “effect of a mutation on the interaction” value was “decreasing interaction strength”.

Variants of: B1
Conditions: with pak4_human PAK4, O96013
For K49E;R56E;V178D, the “effect of a mutation on the interaction” value was “decreasing interaction strength”.

Variants of: B1
Conditions: with pgfra_human PDGFRA
For K49E;R56E;V178D, the “effect of a mutation on the interaction” value was “decreasing interaction strength”.

Variants of: B1
Conditions: with cdk17_human CDK17, Q00537
K49E;R56E;V178D was tested, and the “effect of a mutation on the interaction” value was “decreasing interaction strength”.

Variants of: B1
Conditions: with mink1_human MINK1, Q8N4C8
K49E;R56E;V178D was tested, and the “effect of a mutation on the interaction” value was “decreasing interaction strength”.

Variants of: B1
Conditions: with kcc2d_human CAMK2D
With K49E;R56E;V178D the “effect of a mutation on the interaction” value was “decreasing interaction strength”.

Variants of: B1
Conditions: with kcc2a_human CAMK2A
K49E;R56E;V178D was tested, and the “effect of a mutation on the interaction” value was “decreasing interaction strength”.

Variants of: B1
Conditions: with dapk2_human DAPK2, Q9UIK4
In the case of K49E;R56E;V178D, the “effect of a mutation on the interaction” value is reported as “decreasing interaction strength”.

Variants of: B1
Conditions: with m4k1_human MAP4K1, Q92918
For K49E;R56E;V178D, the “effect of a mutation on the interaction” value was “decreasing interaction strength”.

Variants of: B1
Conditions: with erbb4_human ERBB4, Q15303
K49E;R56E;V178D was tested, and the “effect of a mutation on the interaction” value was “decreasing interaction strength”.

Variants of: B1
Conditions: with bub1b_human BUB1B
In the case of K49E;R56E;V178D, the “effect of a mutation on the interaction” value is reported as “decreasing interaction strength”.

Variants of: B1
Conditions: with pak5_human PAK5, Q9P286
K49E;R56E;V178D was tested, and the “effect of a mutation on the interaction” value was “decreasing interaction strength”.

Variants of: B1
Conditions: with cdk16_human CDK16, Q00536
In the case of K49E;R56E;V178D, the “effect of a mutation on the interaction” value is reported as “decreasing interaction strength”.

Variants of: B1
Conditions: with sik1_human SIK1, P57059
For K49E;R56E;V178D, the “effect of a mutation on the interaction” value was “decreasing interaction strength”.

Variants of: B1
Conditions: with mark3_human MARK3, P27448
In the case of K49E;R56E;V178D, the “effect of a mutation on the interaction” value is reported as “decreasing interaction strength”.

Variants of: B1
Conditions: with plk1_human PLK1, P53350
In the case of K49E;R56E;V178D, the “effect of a mutation on the interaction” value is reported as “decreasing interaction strength”.

Variants of: B1
Conditions: with cd28_human CD28, P10747
K49E;R56E;V178D was tested, and the “effect of a mutation on the interaction” value was “decreasing interaction strength”.

Variants of: B1
Conditions: with srs10_human SRSF10, O75494
In the case of K49E;R56E;V178D, the “effect of a mutation on the interaction” value is reported as “decreasing interaction strength”.

Variants of: B1
Conditions: with pabp1_human PABPC1, P11940
In the case of K49E;R56E;V178D, the “effect of a mutation on the interaction” value is reported as “decreasing interaction strength”.

Variants of: B1
Conditions: with foxo3_human FOXO3, O43524
With K49E;R56E;V178D the “effect of a mutation on the interaction” value was “decreasing interaction strength”.

Variants of: B1
Conditions: with hdac4_human HDAC4, P56524
With K49E;R56E;V178D the “effect of a mutation on the interaction” value was “decreasing interaction strength”.

Variants of: B1
Conditions: with wdr62_human WDR62, O43379
With K49E;R56E;V178D the “effect of a mutation on the interaction” value was “decreasing interaction strength”.

Variants of: B1
Conditions: with pml_human PML
K49E;R56E;V178D was tested, and the “effect of a mutation on the interaction” value was “decreasing interaction strength”.

Variants of: B1
Conditions: with wwp2_human WWP2, O00308
For K49E;R56E;V178D, the “effect of a mutation on the interaction” value was “decreasing interaction strength”.

Variants of: B1
Conditions: with trim9_human TRIM9, Q9C026
For K49E;R56E;V178D, the “effect of a mutation on the interaction” value was “decreasing interaction strength”.

Variants of: B1
Conditions: with kctd8_human KCTD8, Q6ZWB6
K49E;R56E;V178D was tested, and the “effect of a mutation on the interaction” value was “decreasing interaction strength”.

Variants of: B1
Conditions: with nedd4_human NEDD4, P46934
With K49E;R56E;V178D the “effect of a mutation on the interaction” value was “decreasing interaction strength”.

Variants of: B1
Conditions: with dtl_human DTL
In the case of K49E;R56E;V178D, the “effect of a mutation on the interaction” value is reported as “decreasing interaction strength”.

Variants of: B1
Conditions: with cbl_human CBL
For K49E;R56E;V178D, the “effect of a mutation on the interaction” value was “decreasing interaction strength”.

Variants of: B1
Conditions: with kcna7_human KCNA7, Q96RP8
In the case of K49E;R56E;V178D, the “effect of a mutation on the interaction” value is reported as “decreasing interaction strength”.

Variants of: B1
Conditions: with shkb1_human SHKBP1, Q8TBC3
shkb1_human SHKBP1, Q8TBC3, sequence (Q8TBC3 whole entry): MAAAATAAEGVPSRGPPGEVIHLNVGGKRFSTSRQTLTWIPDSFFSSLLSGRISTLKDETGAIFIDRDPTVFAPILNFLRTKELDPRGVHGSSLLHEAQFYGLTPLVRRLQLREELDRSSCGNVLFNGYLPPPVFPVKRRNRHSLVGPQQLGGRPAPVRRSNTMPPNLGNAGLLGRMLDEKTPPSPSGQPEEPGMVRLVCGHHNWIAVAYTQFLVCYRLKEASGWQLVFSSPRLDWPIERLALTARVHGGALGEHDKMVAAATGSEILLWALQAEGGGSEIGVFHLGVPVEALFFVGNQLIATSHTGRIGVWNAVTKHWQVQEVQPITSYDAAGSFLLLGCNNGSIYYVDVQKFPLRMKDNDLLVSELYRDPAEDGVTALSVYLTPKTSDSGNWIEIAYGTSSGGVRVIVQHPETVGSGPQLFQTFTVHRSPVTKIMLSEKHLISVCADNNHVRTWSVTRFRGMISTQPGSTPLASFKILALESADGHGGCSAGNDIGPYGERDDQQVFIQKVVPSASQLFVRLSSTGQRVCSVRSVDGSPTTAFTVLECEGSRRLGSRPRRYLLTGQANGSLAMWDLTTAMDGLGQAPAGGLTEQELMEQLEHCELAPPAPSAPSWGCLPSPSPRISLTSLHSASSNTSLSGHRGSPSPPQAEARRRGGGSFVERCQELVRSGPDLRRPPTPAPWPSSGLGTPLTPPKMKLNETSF
With K49E;R56E;V178D the “effect of a mutation on the interaction” value was “decreasing interaction strength”.

Variants of: B1
Conditions: with abtb2_human ABTB2, Q8N961
In the case of K49E;R56E;V178D, the “effect of a mutation on the interaction” value is reported as “decreasing interaction strength”.

Variants of: B1
Conditions: with ned4l_human NEDD4L
With K49E;R56E;V178D the “effect of a mutation on the interaction” value was “decreasing interaction strength”.

Variants of: B1
Conditions: with sh3r1_human SH3RF1, Q7Z6J0
K49E;R56E;V178D was tested, and the “effect of a mutation on the interaction” value was “decreasing interaction strength”.

Variants of: B1
Conditions: with braf_human BRAF
K49E;R56E;V178D was tested, and the “effect of a mutation on the interaction” value was “decreasing interaction strength”.

Variants of: B1
Conditions: with FAM110B
In the case of K49E;R56E;V178D, the “effect of a mutation on the interaction” value is reported as “decreasing interaction strength”.

Variants of: B1
Conditions: with iscu_human ISCU
For K49E;R56E;V178D, the “effect of a mutation on the interaction” value was “decreasing interaction strength”.

Variants of: B1
Conditions: with foxo4_human FOXO4, P98177
With K49E;R56E;V178D the “effect of a mutation on the interaction” value was “decreasing interaction strength”.

Variants of: B1
Conditions: with klc4_human KLC4, Q9NSK0
K49E;R56E;V178D was tested, and the “effect of a mutation on the interaction” value was “decreasing interaction strength”.

Variants of: B1
Conditions: with larp1_human LARP1, Q6PKG0
With K49E;R56E;V178D the “effect of a mutation on the interaction” value was “decreasing interaction strength”.

Variants of: B1
Conditions: with klc3_human KLC3, Q6P597
In the case of K49E;R56E;V178D, the “effect of a mutation on the interaction” value is reported as “decreasing interaction strength”.

Variants of: B1
Conditions: with dnjb1_human DNAJB1, P25685
K49E;R56E;V178D was tested, and the “effect of a mutation on the interaction” value was “decreasing interaction strength”.

Variants of: B1
Conditions: with wee1_human WEE1, P30291
For K49E;R56E;V178D, the “effect of a mutation on the interaction” value was “decreasing interaction strength”.

Variants of: B1
Conditions: with grip1_human GRIP1, Q9Y3R0
grip1_human GRIP1, Q9Y3R0, sequence (Q9Y3R0 whole entry): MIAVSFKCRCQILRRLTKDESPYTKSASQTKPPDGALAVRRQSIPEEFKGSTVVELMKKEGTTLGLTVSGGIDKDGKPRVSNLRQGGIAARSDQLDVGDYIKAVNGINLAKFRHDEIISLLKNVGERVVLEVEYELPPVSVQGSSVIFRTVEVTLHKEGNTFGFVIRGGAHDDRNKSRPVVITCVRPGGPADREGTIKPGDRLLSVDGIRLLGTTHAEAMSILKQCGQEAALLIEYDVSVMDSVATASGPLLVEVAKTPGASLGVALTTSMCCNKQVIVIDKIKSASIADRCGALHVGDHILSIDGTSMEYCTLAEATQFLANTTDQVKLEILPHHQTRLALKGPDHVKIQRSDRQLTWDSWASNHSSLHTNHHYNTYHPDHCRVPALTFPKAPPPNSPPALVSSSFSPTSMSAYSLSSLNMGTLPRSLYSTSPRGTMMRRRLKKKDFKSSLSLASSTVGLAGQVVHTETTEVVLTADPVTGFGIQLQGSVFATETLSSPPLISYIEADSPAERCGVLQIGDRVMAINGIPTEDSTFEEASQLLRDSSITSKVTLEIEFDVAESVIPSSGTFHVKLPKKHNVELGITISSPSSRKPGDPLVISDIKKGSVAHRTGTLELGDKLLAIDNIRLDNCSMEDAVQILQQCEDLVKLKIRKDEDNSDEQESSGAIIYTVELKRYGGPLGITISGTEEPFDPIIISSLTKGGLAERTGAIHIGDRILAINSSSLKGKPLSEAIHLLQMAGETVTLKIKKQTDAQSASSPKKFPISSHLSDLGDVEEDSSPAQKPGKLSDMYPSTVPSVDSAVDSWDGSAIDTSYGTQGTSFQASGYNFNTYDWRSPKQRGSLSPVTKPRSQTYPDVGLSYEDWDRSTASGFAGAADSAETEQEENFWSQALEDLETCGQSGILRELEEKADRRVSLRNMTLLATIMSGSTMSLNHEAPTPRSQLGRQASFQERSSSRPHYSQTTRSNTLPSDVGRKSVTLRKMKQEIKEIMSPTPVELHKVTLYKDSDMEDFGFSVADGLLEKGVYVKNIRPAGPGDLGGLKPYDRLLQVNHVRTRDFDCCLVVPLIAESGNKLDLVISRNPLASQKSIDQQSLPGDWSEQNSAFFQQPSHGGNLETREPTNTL
With K49E;R56E;V178D the “effect of a mutation on the interaction” value was “decreasing interaction strength”.

Variants of: B1
Conditions: with KIAA0930, Q6ICG6
With K49E;R56E;V178D the “effect of a mutation on the interaction” value was “decreasing interaction strength”.

Variants of: B1
Conditions: with ablm1_human ABLIM1, O14639
K49E;R56E;V178D was tested, and the “effect of a mutation on the interaction” value was “decreasing interaction strength”.

Variants of: B1
Conditions: with baip2_human BAIAP2, Q9UQB8
baip2_human BAIAP2, Q9UQB8, sequence (Q9UQB8 whole entry): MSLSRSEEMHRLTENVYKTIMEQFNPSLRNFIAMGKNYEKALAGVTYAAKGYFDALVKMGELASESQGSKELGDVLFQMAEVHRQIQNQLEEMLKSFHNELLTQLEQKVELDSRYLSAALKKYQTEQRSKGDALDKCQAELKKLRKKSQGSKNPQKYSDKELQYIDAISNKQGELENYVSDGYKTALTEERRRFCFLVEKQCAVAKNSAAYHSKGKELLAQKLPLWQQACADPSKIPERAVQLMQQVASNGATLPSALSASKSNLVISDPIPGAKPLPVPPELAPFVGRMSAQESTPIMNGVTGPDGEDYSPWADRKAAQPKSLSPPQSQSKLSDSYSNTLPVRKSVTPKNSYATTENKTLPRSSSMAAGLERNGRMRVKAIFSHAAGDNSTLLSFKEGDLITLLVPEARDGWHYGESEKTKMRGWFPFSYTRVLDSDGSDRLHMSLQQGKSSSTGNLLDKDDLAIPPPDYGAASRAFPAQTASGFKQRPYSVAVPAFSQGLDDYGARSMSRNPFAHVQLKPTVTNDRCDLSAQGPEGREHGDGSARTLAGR
With K49E;R56E;V178D the “effect of a mutation on the interaction” value was “decreasing interaction strength”.

Variants of: B1
Conditions: with nav1_human NAV1, Q8NEY1
For K49E;R56E;V178D, the “effect of a mutation on the interaction” value was “decreasing interaction strength”.

Variants of: B1
Conditions: with pcm1_human PCM1, Q15154
K49E;R56E;V178D was tested, and the “effect of a mutation on the interaction” value was “decreasing interaction strength”.

Variants of: B1
Conditions: with EPB41L2, O43491
In the case of K49E;R56E;V178D, the “effect of a mutation on the interaction” value is reported as “decreasing interaction strength”.

Variants of: B1
Conditions: with kif1b_human KIF1B
For K49E;R56E;V178D, the “effect of a mutation on the interaction” value was “decreasing interaction strength”.

Variants of: B1
Conditions: with clap1_human CLASP1, Q7Z460
clap1_human CLASP1, Q7Z460, sequence (Q7Z460 whole entry): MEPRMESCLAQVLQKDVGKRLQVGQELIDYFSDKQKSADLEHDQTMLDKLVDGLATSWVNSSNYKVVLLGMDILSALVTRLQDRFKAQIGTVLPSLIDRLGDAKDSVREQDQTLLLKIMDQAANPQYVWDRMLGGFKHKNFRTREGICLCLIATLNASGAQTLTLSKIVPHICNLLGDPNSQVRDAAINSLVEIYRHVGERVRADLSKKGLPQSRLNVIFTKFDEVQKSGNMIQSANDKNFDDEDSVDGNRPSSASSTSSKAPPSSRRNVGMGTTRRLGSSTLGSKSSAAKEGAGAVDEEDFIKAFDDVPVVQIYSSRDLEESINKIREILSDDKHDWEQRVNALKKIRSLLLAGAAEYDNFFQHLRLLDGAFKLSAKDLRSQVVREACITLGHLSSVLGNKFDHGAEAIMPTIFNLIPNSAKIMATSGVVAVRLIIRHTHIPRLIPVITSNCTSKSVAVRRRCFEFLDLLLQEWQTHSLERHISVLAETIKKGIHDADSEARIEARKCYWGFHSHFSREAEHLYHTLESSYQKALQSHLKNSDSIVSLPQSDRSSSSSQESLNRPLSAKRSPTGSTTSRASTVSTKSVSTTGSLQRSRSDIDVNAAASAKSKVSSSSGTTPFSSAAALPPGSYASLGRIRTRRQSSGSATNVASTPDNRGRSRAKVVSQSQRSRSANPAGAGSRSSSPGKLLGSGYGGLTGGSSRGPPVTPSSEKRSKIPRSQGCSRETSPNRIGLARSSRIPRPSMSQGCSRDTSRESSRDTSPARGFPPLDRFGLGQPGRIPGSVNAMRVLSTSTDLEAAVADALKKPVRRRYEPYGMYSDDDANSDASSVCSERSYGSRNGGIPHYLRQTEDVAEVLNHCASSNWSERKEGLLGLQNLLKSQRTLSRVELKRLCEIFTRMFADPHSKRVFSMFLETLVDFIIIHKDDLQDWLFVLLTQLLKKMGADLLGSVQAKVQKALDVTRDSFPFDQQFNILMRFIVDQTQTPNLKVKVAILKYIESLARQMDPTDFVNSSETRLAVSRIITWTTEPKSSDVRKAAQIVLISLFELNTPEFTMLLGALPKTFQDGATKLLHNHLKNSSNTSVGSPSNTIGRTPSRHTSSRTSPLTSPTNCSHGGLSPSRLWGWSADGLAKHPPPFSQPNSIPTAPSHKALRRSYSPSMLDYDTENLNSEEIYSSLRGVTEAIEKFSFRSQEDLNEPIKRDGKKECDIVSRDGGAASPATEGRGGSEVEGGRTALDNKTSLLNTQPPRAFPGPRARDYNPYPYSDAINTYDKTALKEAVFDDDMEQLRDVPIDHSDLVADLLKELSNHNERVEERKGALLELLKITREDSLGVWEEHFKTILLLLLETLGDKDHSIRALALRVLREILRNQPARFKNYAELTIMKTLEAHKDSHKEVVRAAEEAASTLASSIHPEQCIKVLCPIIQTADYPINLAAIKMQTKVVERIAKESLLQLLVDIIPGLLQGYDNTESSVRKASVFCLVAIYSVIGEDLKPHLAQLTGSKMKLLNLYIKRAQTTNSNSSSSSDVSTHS
K49E;R56E;V178D was tested, and the “effect of a mutation on the interaction” value was “decreasing interaction strength”.

Variants of: B1
Conditions: with pum1_human PUM1, Q14671
With K49E;R56E;V178D the “effect of a mutation on the interaction” value was “decreasing interaction strength”.

Variants of: B1
Conditions: with klc2_human KLC2, Q9H0B6
klc2_human KLC2, Q9H0B6, sequence (Q9H0B6 whole entry): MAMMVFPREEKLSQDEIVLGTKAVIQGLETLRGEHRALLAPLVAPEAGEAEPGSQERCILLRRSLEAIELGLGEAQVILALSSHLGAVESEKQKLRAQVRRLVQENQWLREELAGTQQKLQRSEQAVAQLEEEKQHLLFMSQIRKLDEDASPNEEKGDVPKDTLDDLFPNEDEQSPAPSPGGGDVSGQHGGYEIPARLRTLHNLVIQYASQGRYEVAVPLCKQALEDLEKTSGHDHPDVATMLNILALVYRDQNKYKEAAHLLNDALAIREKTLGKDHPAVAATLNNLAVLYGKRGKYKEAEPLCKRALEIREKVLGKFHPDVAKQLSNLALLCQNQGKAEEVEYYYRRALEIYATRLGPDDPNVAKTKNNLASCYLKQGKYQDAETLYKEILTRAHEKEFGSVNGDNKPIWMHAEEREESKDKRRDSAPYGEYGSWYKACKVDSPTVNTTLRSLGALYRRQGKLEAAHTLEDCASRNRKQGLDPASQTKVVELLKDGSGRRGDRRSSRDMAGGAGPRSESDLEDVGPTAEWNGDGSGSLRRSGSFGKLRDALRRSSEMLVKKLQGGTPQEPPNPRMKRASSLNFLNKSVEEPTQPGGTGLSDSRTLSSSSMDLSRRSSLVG
K49E;R56E;V178D was tested, and the “effect of a mutation on the interaction” value was “decreasing interaction strength”.

Variants of: B1
Conditions: with foxo1_human FOXO1, Q12778
With K49E;R56E;V178D the “effect of a mutation on the interaction” value was “decreasing interaction strength”.

Variants of: B1
Conditions: with irs1_human IRS1, P35568
In the case of K49E;R56E;V178D, the “effect of a mutation on the interaction” value is reported as “decreasing interaction strength”.

Variants of: B1
Conditions: with atat_human ATAT1, Q5SQI0
K49E;R56E;V178D was tested, and the “effect of a mutation on the interaction” value was “decreasing interaction strength”.

Variants of: B1
Conditions: with 1433e_human YWHAE
With K49E;R56E;V178D the “effect of a mutation on the interaction” value was “decreasing interaction strength”.

— IntAct's records for PubMed 36931259
